Experiment [1] addresses human Neurokinin NK2 receptor (human) (UniProt P21452). Description: radio-ligand competition binding (CEREP), reference compound, human receptor in recombinant mammalian cells; radioligand not named.
Experiment [2] shares this target. As to the kind of experiment: radio-ligand competition binding (CEREP), second screen, reference compound; radioligand not named.

The term IC50 denotes the point on the concentration scale where inhibition reaches its midpoint.

Sequence of human Neurokinin NK2 receptor (human) (P21452 whole entry): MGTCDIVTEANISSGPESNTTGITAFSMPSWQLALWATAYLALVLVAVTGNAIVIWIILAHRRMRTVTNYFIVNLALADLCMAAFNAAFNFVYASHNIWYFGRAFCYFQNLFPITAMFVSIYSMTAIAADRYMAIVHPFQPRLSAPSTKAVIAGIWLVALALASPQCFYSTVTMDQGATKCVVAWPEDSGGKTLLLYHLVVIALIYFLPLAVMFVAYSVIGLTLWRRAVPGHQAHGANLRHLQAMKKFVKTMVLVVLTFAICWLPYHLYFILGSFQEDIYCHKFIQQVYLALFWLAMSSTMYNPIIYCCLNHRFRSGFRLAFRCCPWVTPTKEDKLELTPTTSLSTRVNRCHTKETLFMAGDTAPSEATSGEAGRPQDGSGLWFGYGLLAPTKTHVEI

Turning to “[Nle10]-NKA(4-10) (from UniProt P20366 101-107) (peptide)”, the half-maximal inhibitory concentration (IC50) in experiment [1] came to 9.3 nM; in experiment [2], 9.7 nM.

The record behind these values is patent US20100074852A1.
